Experimental data published in patent US20130102527A1.

How the values were obtained:
Test in all cases: cell-based or functional assay
[1] = molecular target: chymotrypsin-like site (β5 subunit) of 26S proteasomes purified from rabbit muscle (rabbit) (UniProt G1T4Q9)
[2] = molecular target: trypsin-like site (β2 subunit) of 26S proteasomes purified from rabbit muscle (rabbit) (UniProt G1SWK8)
[3] = molecular target: caspase-like site (β1 subunit) of 26S proteasomes purified from rabbit muscle (rabbit)
[4] = molecular target: proteasome β5 subunit (chymotrypsin-like site) in human cells and cell extracts (human) (UniProt P28074)
[5] = molecular target: proteasome β2 subunit (trypsin-like site) in human cells and cell extracts (human) (UniProt Q99436)
[6] = molecular target: trypsin-like site (β2 subunit) of yeast 20S proteasome (S. cerevisiae) (UniProt P25043)
[7] = molecular target: chymotrypsin-like site (β5 subunit) of yeast 20S proteasome (S. cerevisiae) (UniProt P30656)
[8] = molecular target: proteasome β1 subunit (caspase-like site) in human cells and cell extracts (human) (UniProt P28072)
Chain of proteasome β1 subunit (caspase-like site) in human cells and cell extracts (human) (P28072 35-239): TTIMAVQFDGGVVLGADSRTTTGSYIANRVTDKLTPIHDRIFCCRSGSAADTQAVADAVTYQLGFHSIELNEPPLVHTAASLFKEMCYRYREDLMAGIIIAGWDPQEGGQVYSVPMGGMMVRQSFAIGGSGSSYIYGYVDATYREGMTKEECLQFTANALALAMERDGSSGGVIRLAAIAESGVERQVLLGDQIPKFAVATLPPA

Chain of proteasome β2 subunit (trypsin-like site) in human cells and cell extracts (human) (Q99436 44-277): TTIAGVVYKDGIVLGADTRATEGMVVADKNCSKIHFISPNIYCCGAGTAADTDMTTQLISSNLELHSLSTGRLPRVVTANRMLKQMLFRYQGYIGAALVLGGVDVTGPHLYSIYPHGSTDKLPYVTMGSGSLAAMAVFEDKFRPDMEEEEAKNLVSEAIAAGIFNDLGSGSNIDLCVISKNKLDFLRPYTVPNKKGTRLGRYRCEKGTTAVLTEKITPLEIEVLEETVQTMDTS
Chain of proteasome β5 subunit (chymotrypsin-like site) in human cells and cell extracts (human) (P28074 60-263): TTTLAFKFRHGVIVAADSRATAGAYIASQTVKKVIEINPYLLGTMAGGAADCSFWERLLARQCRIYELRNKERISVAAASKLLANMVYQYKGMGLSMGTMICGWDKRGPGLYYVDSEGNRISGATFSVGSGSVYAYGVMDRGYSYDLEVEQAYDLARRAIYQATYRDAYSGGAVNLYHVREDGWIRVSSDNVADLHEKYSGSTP
Chain of trypsin-like site (β2 subunit) of yeast 20S proteasome (S. cerevisiae) (P25043 30-261): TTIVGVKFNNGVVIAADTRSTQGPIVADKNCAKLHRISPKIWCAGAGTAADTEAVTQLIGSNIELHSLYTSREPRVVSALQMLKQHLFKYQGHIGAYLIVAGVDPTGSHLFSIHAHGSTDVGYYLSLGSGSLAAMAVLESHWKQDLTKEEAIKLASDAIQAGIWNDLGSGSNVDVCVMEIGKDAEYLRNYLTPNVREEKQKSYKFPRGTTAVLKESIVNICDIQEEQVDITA
Chain of trypsin-like site (β2 subunit) of 26S proteasomes purified from rabbit muscle (rabbit) (G1SWK8 entry or part of it): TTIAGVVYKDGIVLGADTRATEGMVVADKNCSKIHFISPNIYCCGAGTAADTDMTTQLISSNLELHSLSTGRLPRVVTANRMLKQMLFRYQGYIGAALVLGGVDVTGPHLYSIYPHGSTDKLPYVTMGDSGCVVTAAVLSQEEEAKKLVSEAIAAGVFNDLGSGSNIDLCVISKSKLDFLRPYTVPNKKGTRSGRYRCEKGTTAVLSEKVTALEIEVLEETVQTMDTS
Chain of chymotrypsin-like site (β5 subunit) of yeast 20S proteasome (S. cerevisiae) (P30656 76-287): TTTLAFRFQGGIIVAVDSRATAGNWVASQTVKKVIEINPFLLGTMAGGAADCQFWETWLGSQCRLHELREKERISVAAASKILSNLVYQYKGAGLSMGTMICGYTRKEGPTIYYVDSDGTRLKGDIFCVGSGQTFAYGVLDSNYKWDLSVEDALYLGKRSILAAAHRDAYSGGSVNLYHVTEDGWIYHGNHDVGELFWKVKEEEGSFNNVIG
Chain of chymotrypsin-like site (β5 subunit) of 26S proteasomes purified from rabbit muscle (rabbit) (G1T4Q9 entry or part of it): as the sequence (P28074 60-263) above, with E197D counted along it

Substance: HMB-Val-Ser-Phe(4-NH2)-VS (49) (peptide)
- IC50 (µM) for sites in 26S proteasomes: Chym-L [1]: 0.04 µM
- IC50 (µM) for sites in 26S proteasomes: Tr-L [2]: 0.11 µM
- IC50 (µM) for sites in 26S proteasomes: Casp-L [3]: 23 µM

Substance: HMB-Val-Ser-Phe(4-CH2NH2)-VS (48) (peptide)
- IC50 (µM) for sites: Chym-L; NCI-H929 cells, 6 h, PROTEASOMEGLO [4]: 13 µM
- IC50 (µM) for sites: Chym-L; RPMI-8226 cells, 6 h, PROTEASOMEGLO [4]: 15 µM
- IC50 (µM) for sites: Tr-L; NCI-H929 cells, 6 h, PROTEASOMEGLO [5]: 0.2 µM
- IC50 (µM) for sites: Tr-L; RPMI-8226 cells, 6 h, PROTEASOMEGLO [5]: 3.2 µM
- IC50 (µM) for yeast 20S proteasome: Tr-L [6]: 1.6 µM
- IC50 (µM) for yeast 20S proteasome: Chym-L [7]: 19.3 µM

Substance: NC-022 (HMB-Val-Ser-Arg-ek) (peptide)
- IC50 (µM) for sites: Tr-L; NCI-H929 cells, 6 h, PROTEASOMEGLO [5]: 0.9 µM
- IC50 (µM) for sites: Tr-L; RPMI-8226 cells, 6 h, PROTEASOMEGLO [5]: 24 µM
- inhibition of the trypsin-like sites at 3 µM NC-022 within 4-6 hours, NCI-H929 cells [5]: 90%
- inhibition of trypsin-like activity 5 hours after NC-022 addition, NCI-H929 and KMS-12-BM cells [5]: > 90%
- inhibition of trypsin-like activity after a 6-hour incubation, MM cell lines [5]: > 90%

Substance: LU-005 (peptide)
- Inhibition of active sites (% control): β5; KMS-12-BM, 0.012 µM LU-005, 1 h [4]: 16%
- Inhibition of active sites (% control): β5; KMS-12-BM, 0.037 µM LU-005, 1 h [4]: 48%
- Inhibition of active sites (% control): β5; KMS-12-BM, 0.11 µM LU-005, 1 h [4]: 56%
- Inhibition of active sites (% control): β5; KMS-12-BM, 0.33 µM LU-005, 1 h [4]: 81%
- Inhibition of active sites (% control): β5; KMS-12-BM, 1.0 µM LU-005, 1 h [4]: 95%
- Inhibition of active sites (% control): β5; KMS-18, 0.037 µM LU-005, 1 h [4]: 14%
- Inhibition of active sites (% control): β5; KMS-18, 0.11 µM LU-005, 1 h [4]: 47%
- Inhibition of active sites (% control): β5; KMS-18, 0.33 µM LU-005, 1 h [4]: 69%
- Inhibition of active sites (% control): β5; KMS-18, 1.0 µM LU-005, 1 h [4]: 85%
- Inhibition of active sites (% control): β5; KMS-18, 3.0 µM LU-005, 1 h [4]: 94%
- Inhibition of active sites (% control): β5; KMS-18, 9.0 µM LU-005, 1 h [4]: 97%
- Inhibition of active sites (% control): β5; MM1.R, 0.004 µM LU-005, 1 h [4]: 17%
- Inhibition of active sites (% control): β5; MM1.R, 0.011 µM LU-005, 1 h [4]: 31%
- Inhibition of active sites (% control): β5; MM1.R, 0.043 µM LU-005, 1 h [4]: 54%
- Inhibition of active sites (% control): β5; MM1.R, 0.11 µM LU-005, 1 h [4]: 76%
- Inhibition of active sites (% control): β5; NCI-H929, 0.0014 µM LU-005, 1 h [4]: 22%
- Inhibition of active sites (% control): β5; NCI-H929, 0.004 µM LU-005, 1 h [4]: 22%
- Inhibition of active sites (% control): β5; NCI-H929, 0.011 µM LU-005, 1 h [4]: 48%
- Inhibition of active sites (% control): β5; NCI-H929, 0.043 µM LU-005, 1 h [4]: 72%
- Inhibition of active sites (% control): β5; NCI-H929, 0.11 µM LU-005, 1 h [4]: 86%
- Inhibition of active sites (% control): β5; RPMI-8226, 0.012 µM LU-005, 1 h [4]: 16%
- Inhibition of active sites (% control): β5; RPMI-8226, 0.037 µM LU-005, 1 h [4]: 45%
- Inhibition of active sites (% control): β5; RPMI-8226, 0.11 µM LU-005, 1 h [4]: 49%
- Inhibition of active sites (% control): β5; RPMI-8226, 0.33 µM LU-005, 1 h [4]: 62%
- Inhibition of active sites (% control): β5; RPMI-8226, 1.0 µM LU-005, 1 h [4]: 82%
- Inhibition of active sites (% control): β2; KMS-12-BM, 0.012 µM LU-005, 1 h [5]: -21%
- Inhibition of active sites (% control): β2; KMS-12-BM, 0.037 µM LU-005, 1 h [5]: -12%
- Inhibition of active sites (% control): β2; KMS-12-BM, 0.11 µM LU-005, 1 h [5]: 4.7%
- Inhibition of active sites (% control): β2; KMS-12-BM, 0.33 µM LU-005, 1 h [5]: 3%
- Inhibition of active sites (% control): β2; KMS-12-BM, 1.0 µM LU-005, 1 h [5]: 29%
- Inhibition of active sites (% control): β2; KMS-18, 0.037 µM LU-005, 1 h [5]: -13%
- Inhibition of active sites (% control): β2; KMS-18, 0.11 µM LU-005, 1 h [5]: 12%
- Inhibition of active sites (% control): β2; KMS-18, 0.33 µM LU-005, 1 h [5]: 24%
- Inhibition of active sites (% control): β2; KMS-18, 1.0 µM LU-005, 1 h [5]: 38%
- Inhibition of active sites (% control): β2; KMS-18, 3.0 µM LU-005, 1 h [5]: 50%
- Inhibition of active sites (% control): β2; KMS-18, 9.0 µM LU-005, 1 h [5]: 62%
- Inhibition of active sites (% control): β2; MM1.R, 0.004 µM LU-005, 1 h [5]: 6.5%
- Inhibition of active sites (% control): β2; MM1.R, 0.011 µM LU-005, 1 h [5]: 5%
- Inhibition of active sites (% control): β2; MM1.R, 0.043 µM LU-005, 1 h [5]: 5%
- Inhibition of active sites (% control): β2; MM1.R, 0.11 µM LU-005, 1 h [5]: 23%
- Inhibition of active sites (% control): β2; NCI-H929, 0.0014 µM LU-005, 1 h [5]: -9%
- Inhibition of active sites (% control): β2; NCI-H929, 0.004 µM LU-005, 1 h [5]: -13%
- Inhibition of active sites (% control): β2; NCI-H929, 0.011 µM LU-005, 1 h [5]: -6%
- Inhibition of active sites (% control): β2; NCI-H929, 0.043 µM LU-005, 1 h [5]: 6%
- Inhibition of active sites (% control): β2; NCI-H929, 0.11 µM LU-005, 1 h [5]: 11%
- Inhibition of active sites (% control): β2; RPMI-8226, 0.012 µM LU-005, 1 h [5]: -21%
- Inhibition of active sites (% control): β2; RPMI-8226, 0.037 µM LU-005, 1 h [5]: 1%
- Inhibition of active sites (% control): β2; RPMI-8226, 0.11 µM LU-005, 1 h [5]: 3%
- Inhibition of active sites (% control): β2; RPMI-8226, 0.33 µM LU-005, 1 h [5]: 13%
- Inhibition of active sites (% control): β2; RPMI-8226, 1.0 µM LU-005, 1 h [5]: 22%
- Inhibition of active sites (% control): β1; KMS-12-BM, 0.012 µM LU-005, 1 h [8]: -34%
- Inhibition of active sites (% control): β1; KMS-12-BM, 0.037 µM LU-005, 1 h [8]: -1%
- Inhibition of active sites (% control): β1; KMS-12-BM, 0.11 µM LU-005, 1 h [8]: 3%
- Inhibition of active sites (% control): β1; KMS-12-BM, 0.33 µM LU-005, 1 h [8]: 6%
- Inhibition of active sites (% control): β1; KMS-12-BM, 1.0 µM LU-005, 1 h [8]: 11%
- Inhibition of active sites (% control): β1; KMS-18, 0.037 µM LU-005, 1 h [8]: 0%
- Inhibition of active sites (% control): β1; KMS-18, 0.11 µM LU-005, 1 h [8]: 21%
- Inhibition of active sites (% control): β1; KMS-18, 0.33 µM LU-005, 1 h [8]: 29%
- Inhibition of active sites (% control): β1; KMS-18, 1.0 µM LU-005, 1 h [8]: 32%
- Inhibition of active sites (% control): β1; KMS-18, 3.0 µM LU-005, 1 h [8]: 39%
- Inhibition of active sites (% control): β1; KMS-18, 9.0 µM LU-005, 1 h [8]: 42%
- Inhibition of active sites (% control): β1; MM1.R, 0.004 µM LU-005, 1 h [8]: 6%
- Inhibition of active sites (% control): β1; MM1.R, 0.011 µM LU-005, 1 h [8]: 3%
- Inhibition of active sites (% control): β1; MM1.R, 0.043 µM LU-005, 1 h [8]: 6%
- Inhibition of active sites (% control): β1; MM1.R, 0.11 µM LU-005, 1 h [8]: 27%
- Inhibition of active sites (% control): β1; NCI-H929, 0.0014 µM LU-005, 1 h [8]: -14%
- Inhibition of active sites (% control): β1; NCI-H929, 0.004 µM LU-005, 1 h [8]: -7%
- Inhibition of active sites (% control): β1; NCI-H929, 0.011 µM LU-005, 1 h [8]: 5.5%
- Inhibition of active sites (% control): β1; NCI-H929, 0.043 µM LU-005, 1 h [8]: 15%
- Inhibition of active sites (% control): β1; NCI-H929, 0.11 µM LU-005, 1 h [8]: 6%
- Inhibition of active sites (% control): β1; RPMI-8226, 0.012 µM LU-005, 1 h [8]: -34%
- Inhibition of active sites (% control): β1; RPMI-8226, 0.037 µM LU-005, 1 h [8]: 16%
- Inhibition of active sites (% control): β1; RPMI-8226, 0.11 µM LU-005, 1 h [8]: 23%
- Inhibition of active sites (% control): β1; RPMI-8226, 0.33 µM LU-005, 1 h [8]: 37%
- Inhibition of active sites (% control): β1; RPMI-8226, 1.0 µM LU-005, 1 h [8]: 37%
